For two molecules, pKa, koff and kon results are on record in PMC3121799, “Mechanism of Heparin Acceleration of Tissue Inhibitor of Metalloproteases-1 (TIMP-1) Degradation by the Human Neutrophil Elastase” (PLoS ONE, 2011).

The subject of series [1] is Nterm16. Put plainly: kinetics. The note with it: 37 °C, Constant ionic strength buffer system containing 140 mM NaCl, 25 mM glycine, 25 mM acetic acid, 25 mM Mes, 75 mM Tris, 0.05% (v/v) Triton X-100, pH adjusted with HCl or NaOH.
Series [2] addresses His57 (UniProt position 70, VMSAAHCVANV). Kind of series: kinetics. The note with it: 37 °C, Constant ionic strength buffer system containing 140 mM NaCl, 25 mM glycine, 25 mM acetic acid, 25 mM Mes, 75 mM Tris, 0.05% (v/v) Triton X-100, pH adjusted with HCl or NaOH.
In series [3] the target is T1, Human neutrophil elastase (human, UniProt P08246 30-267). Kind of series: stopped-flow fluorescence kinetics of substrate hydrolysis (pre-steady-state, fit to a three-step mechanism with DynaFit IV); both in solution; 3.8 µM FRET-peptide, 12.6 nM HNE (12.7 nM in the methods), 25°C, 10 mM Tris-HCl pH 7.4, 100 mM NaCl, with 50 µM heparin. The conditions noted are these: both partners purified.

Series [4] concerns the target T1, Human neutrophil elastase. Kind of series: stopped-flow fluorescence kinetics of substrate hydrolysis (pre-steady-state, fit to a three-step mechanism with DynaFit IV); both in solution; 3.8 µM FRET-peptide, 12.6 nM HNE, 25°C, 10 mM Tris-HCl pH 7.4, 100 mM NaCl, no heparin. The note with it: both partners purified.
The mark [5] stands for this setting: Free enzyme, no heparin (control).
Setting [6] is: Heparin-bound enzyme (50 µM 14 kDa heparin).

By pKa is commonly meant the negative logarithm of the acid dissociation constant. Usually koff stands for the rate constant with which the complex falls apart. A low value points to slow dissociation. The term kon denotes the second-order rate constant of association.

Square brackets hold non-standard residues; d marks the D form. Ends that are not written are not given here. * marks the point of attachment. EDDnp = O=[N+]([O-])c1ccc(NCCN*)c([N+](=O)[O-])c1; 2Abz = Nc1ccccc1C(=O)O

T1 sequence (P08246 30-267): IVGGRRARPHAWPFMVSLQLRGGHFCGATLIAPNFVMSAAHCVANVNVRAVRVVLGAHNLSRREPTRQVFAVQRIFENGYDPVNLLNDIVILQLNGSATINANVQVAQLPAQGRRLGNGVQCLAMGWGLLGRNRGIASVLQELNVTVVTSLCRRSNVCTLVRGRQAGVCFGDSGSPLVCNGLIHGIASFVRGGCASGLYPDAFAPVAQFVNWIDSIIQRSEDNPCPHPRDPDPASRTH

As to “Human neutrophil elastase (HNE; leukocyte elastase, EC 3.4.21.37) (Homo sapiens)”, the pKa is given as 8.93±0.05 in series [1] (setting [5]), 9.60±0.07 in series [1] (setting [6]), 6.71±0.05 in series [2] (setting [5]) and 7.04±0.07 in series [2] (setting [6]).

B1: FRET-peptide Abz-AMESVMGYFHRSQ-EDDnp (peptide)
peptide: [2Abz]AMESVMGYFHRSQ-EDDnp
notes: the peptide has Met where TIMP-1 has Cys70 (cleaved bond Val-Met); also called FRET-peptide substrate; FRET substrate; source: synthetic peptide (solid phase, Fmoc; HPLC purified)
As to B1, in series [3], the koff came out at 0.081 s⁻¹ and the kon was found to be 820000 M⁻¹ s⁻¹. In series [4], this molecule displayed a koff of 0.25 s⁻¹ and a kon of 350000 M⁻¹ s⁻¹.
